Data on two molecules can be found in patent US20210139582A1 (published 2021).

For assay [1], the target named is T1, C-terminus biotinylated monomeric human CD32a^H (FcγRIIa, histidine-131 variant), recombinant (human, UniProt P12318 34-218, limits assumed, C-terminus biotinylated (site-specific)).
T1 construct: Captured on neutravidin (ELISA plates or CM5 chips); Bought reagent; also called CD32a-H131
T1 sequence (looked up): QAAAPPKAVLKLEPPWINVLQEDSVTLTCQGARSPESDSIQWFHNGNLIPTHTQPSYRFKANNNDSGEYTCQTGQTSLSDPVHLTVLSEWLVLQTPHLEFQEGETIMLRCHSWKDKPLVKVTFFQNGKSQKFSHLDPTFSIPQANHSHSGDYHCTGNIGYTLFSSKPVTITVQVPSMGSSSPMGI
Kind of assay: SPR, estimated steady state KD, monomeric IgG, pH 7.4.

Assay [2] concerns the target T2, His-tagged soluble mouse FcRn (recombinant, insect cell produced) (mouse, UniProt Q61559 22-290). The assay is described as follows: method not stated; neutral pH.
Assay [3] addresses T2, His-tagged soluble mouse FcRn …. Kind of assay: method not stated; acidic pH.

Where a chain is given by its changes, count along the chain named. Names and notes keep the numbering of the source.

T2 sequence (Q61559 22-290): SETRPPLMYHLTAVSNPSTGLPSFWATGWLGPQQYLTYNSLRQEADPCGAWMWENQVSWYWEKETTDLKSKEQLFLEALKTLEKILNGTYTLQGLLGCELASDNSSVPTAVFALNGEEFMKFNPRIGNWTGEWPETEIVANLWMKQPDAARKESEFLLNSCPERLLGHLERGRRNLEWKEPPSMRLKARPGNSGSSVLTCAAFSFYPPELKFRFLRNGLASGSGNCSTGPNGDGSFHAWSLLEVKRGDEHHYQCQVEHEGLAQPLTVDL

B1: anti-NIP hIgG1-M252Y/S254T/T256E/H433K/N434F (hIgG1^MST/HN) (antibody)
chain: ASTKGPSVFPLAPSSKSTSGGTAALGCLVKDYFPEPVTVSWNSGALTSGVHTFPAVLQSSGLYSLSSVVTVPSSSLGTQTYICNVNHKPSNTKVDKKVEPKSCDKTHTCPPCPAPELLGGPSVFLFPPKPKDTLYITREPEVTCVVVDVSHEDPEVKFNWYVDGVEVHNAKTKPREEQYNSTYRVVSVLTVLHQDWLNGKEYKCKVSNKALPAPIEKTISKAKGQPREPQVYTLPPSRDELTKNQVSLTCLVKGFYPSDIAVEWESNGQPENNYKTTPPVLDSDGSFFLYSKLTVDKSRWQQGNVFSCSVMHEALKFHYTQKSLSLSPGK
Regarding B1, the Kd in assay [1] was 2800 nM; in assay [2] it was 7.4 nM; in assay [3], 1.2 nM.

B2: anti-NIP hIgG1-I253A/H310A/H435A (hIgG1^IHH) (antibody)
chain: B1 chain with Y135M, I136A, T137S, E139T, H193A, K316H, F317N, H318A
Take B2: the Kd in assay [1] was 4800 nM.
